The target in test [1] is T1, Recombinant mouse MMR (R&D Systems) (mouse, UniProt Q61830 20-1388).
T1 construct: Bought from R&D Systems; Immobilised on CM5 chip (SPR) or coated on plates (ELISA); also called mMMR; recombinant mMMR
T1 sequence: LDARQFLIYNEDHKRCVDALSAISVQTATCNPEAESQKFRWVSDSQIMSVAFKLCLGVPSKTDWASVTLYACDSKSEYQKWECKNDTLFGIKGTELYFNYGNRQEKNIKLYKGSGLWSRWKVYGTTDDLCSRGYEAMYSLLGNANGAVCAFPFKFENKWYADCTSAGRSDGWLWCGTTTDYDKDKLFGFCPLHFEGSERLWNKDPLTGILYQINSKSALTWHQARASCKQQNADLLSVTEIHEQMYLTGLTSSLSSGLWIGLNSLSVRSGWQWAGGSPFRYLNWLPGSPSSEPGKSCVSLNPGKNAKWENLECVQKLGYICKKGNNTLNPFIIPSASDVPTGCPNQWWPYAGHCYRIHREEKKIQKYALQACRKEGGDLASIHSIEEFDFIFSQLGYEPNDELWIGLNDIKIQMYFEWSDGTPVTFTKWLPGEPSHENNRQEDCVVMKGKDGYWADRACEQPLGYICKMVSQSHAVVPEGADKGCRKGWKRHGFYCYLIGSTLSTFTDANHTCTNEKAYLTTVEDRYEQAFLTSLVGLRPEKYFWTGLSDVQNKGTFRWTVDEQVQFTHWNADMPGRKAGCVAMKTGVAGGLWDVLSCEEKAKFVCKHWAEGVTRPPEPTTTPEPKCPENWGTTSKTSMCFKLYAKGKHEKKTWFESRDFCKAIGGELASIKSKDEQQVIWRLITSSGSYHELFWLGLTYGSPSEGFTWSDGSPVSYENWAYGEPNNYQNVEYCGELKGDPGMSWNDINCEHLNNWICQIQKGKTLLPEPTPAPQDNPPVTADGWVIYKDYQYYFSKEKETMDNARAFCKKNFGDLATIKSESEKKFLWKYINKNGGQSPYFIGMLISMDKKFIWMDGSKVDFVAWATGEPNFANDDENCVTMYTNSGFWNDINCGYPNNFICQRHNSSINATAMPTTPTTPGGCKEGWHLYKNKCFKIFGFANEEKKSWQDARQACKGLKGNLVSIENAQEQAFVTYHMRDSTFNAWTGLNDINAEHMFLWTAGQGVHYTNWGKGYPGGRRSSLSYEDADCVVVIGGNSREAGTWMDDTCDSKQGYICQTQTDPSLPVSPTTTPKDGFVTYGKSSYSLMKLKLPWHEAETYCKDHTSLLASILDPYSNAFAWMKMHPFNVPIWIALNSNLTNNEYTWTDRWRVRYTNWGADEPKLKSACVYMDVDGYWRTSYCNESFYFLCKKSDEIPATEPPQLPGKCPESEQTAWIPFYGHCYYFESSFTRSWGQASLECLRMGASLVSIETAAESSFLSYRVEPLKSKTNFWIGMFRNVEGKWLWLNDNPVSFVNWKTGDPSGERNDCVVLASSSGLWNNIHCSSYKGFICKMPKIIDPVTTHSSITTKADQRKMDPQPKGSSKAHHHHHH
Nature of the test: SPR, BIAcore T100, MMR on CM5 chip, Nanobody as analyte. How it is done:
(§1) Affinity analysis was performed using a BIAcore T100 (GE Healthcare) with HEPES-buffered saline running buffer (10 mM HEPES with 0.15 M NaCl, 3.4 mM EDTA and 0.005% surfactant P20 at pH 7.4). MRR was immobilized on a CM5 chip in acetate buffer 50 mM (pH 5.0), resulting in 2100 RU MMR coated on the chip. A second channel on the same chip was activated/deactivated in a similar way and served as a negative control. The MMR Nanobodies were used as analytes in 11 different concentrations, ranging from 1 to 2000 nM, at a flow rate of […]. Glycine-HCl 50 mM (pH 2.0) was used for elution. The kinetic and equilibrium parameters (kd, ka and KD) values were calculated from the combined sensogram of all concentrations using BIAcore T100 evaluation software 2.02 (GE Healthcare).
Anti-CD206 (anti-MMR) Nanobodies (Nbs), which are the smallest available antigen-binding entities, were created in order to target MMR-positive cells in vivo. Nanobodies were raised against the recombinant extracellular portion of MMR, as described in the Materials and Methods (see also Table 1). The binding characteristics of the monovalent anti-MMR Nanobodies were compared using surface Plasmon resonance (SPR) measurements (Table 2).
(In SPR one partner is held on a chip, and binding of the other changes the refractive index at the surface.)

The target of test [2] is T1, Recombinant mouse MMR (R&D Systems). Nature of the test: SPR, immobilised recombinant MMR. How it is done:
as §1
Bivalent Nanobodies were constructed by linking two anti-MMR Nanobody 1 entities using (G₄S)₃ ([…]; SEQ ID NO:151), llama IgG2 hinge ([…]; SEQ ID NO:152) or human IgA hinge ([…] SEQ ID NO:153) linkers. […] As a negative control Nanobody in all experiments, we consistently used α-BCII10 Nb, which is a binder of the β-lactamase BCII enzyme of Bacillus cereus.

The target is the same in test [3]. Nature of the test: SPR, BIAcore T100, mouse MMR on CM5 chip. How it is done: as §1
(§2) The binding characteristics and affinity of selected Nbs towards the recombinant hMMR and recombinant mMMR antigen was examined in further detail using surface plasmon resonance. A combined sensogram was recorded for each Nb (example for NbhmMMRm3.49 in FIG. 7) and the kinetic and equilibrium parameters (kd, ka and KD) values were calculated (Table 8 and Table 9). Most but not all results on binding to mouse or human rMMR obtained via this SPR analysis are in agreement with the results obtained by PE-ELISA.

Test [4] addresses T2, Recombinant human MMR (R&D Systems) (human, UniProt P22897 19-1383).
T2 construct: Bought from R&D Systems; also called hMMR; recombinant hMMR
T2 sequence: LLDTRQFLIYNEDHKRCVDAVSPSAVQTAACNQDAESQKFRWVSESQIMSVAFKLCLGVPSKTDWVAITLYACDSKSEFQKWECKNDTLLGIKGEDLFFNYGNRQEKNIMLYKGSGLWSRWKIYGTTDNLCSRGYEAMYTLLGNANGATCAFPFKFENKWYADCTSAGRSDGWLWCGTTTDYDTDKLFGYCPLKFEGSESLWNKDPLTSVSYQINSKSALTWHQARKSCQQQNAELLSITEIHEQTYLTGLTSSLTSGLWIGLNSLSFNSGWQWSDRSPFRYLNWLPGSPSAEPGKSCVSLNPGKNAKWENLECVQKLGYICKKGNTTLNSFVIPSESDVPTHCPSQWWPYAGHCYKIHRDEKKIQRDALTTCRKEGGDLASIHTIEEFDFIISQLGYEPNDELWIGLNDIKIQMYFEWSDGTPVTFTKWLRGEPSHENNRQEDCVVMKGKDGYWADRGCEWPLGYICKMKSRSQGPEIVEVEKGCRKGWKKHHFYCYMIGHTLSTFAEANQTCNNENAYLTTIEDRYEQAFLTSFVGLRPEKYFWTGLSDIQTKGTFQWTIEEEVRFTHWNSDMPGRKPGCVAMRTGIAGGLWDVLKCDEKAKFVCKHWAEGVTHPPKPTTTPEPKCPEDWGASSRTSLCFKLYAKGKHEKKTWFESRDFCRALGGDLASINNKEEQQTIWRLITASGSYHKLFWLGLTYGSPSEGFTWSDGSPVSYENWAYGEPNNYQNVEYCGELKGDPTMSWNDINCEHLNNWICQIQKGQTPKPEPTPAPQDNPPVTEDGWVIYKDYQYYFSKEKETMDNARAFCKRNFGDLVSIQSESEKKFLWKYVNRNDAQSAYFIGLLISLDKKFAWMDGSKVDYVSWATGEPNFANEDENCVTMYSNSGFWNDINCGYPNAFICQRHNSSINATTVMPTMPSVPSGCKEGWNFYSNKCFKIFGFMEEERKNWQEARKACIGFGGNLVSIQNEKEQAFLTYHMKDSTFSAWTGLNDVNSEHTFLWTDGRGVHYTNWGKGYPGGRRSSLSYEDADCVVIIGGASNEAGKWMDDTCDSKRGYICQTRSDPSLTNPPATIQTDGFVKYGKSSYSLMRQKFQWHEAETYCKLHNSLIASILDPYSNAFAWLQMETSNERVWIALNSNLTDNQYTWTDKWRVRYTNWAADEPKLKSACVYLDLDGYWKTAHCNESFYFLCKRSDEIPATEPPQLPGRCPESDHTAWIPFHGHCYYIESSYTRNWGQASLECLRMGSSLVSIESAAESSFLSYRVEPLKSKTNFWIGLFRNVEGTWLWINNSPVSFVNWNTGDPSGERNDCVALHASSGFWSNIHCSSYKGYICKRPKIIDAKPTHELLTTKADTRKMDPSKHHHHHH
Nature of the test: SPR, BIAcore T100, human MMR on CM5 chip. How it is done:
as §1, §2

The values below come from patent US20160024213A1 (VIB VZW, published 2016).

B1: Bivalent anti-MMR Nanobody 1 with human IgA hinge linker (VHH)
chain: QVQLQESGGGLVQPGGSLRLSCAASGNIFSINAIGWYRQAPGKQRELVATITLSGSTNYADSVKGRFSISRDNAKNTVYLQMNSLKPEDTAVYYCNANTYSDSDVYGYWGQGTQVTVSSSPSTPPTPSPSTPPASQVQLQESGGGLVQPGGSLRLSCAASGNIFSINAIGWYRQAPGKQRELVATITLSGSTNYADSVKGRFSISRDNAKNTVYLQMNSLKPEDTAVYYCNANTYSDSDVYGYWGQGTQVTVSSHHHHHH
notes: Bivalent tandem of two clone 1 VHH domains in one chain; also called biv MMR linker 3 IgA; MMR biv IgA
B1: in test [1], the koff turned out to be 0.00428 s⁻¹ and the kon was 913000 M⁻¹ s⁻¹. Also, the “fold increase in KD (so in the source) compared to the monovalent clone 1 Nanobody” value (“fold increase in KD (so in the source)” below) in test [2] was found to be 3 fold.

B2: Bivalent anti-MMR Nanobody 1 with llama IgG2 hinge linker (VHH)
chain: QVQLQESGGGLVQPGGSLRLSCAASGNIFSINAIGWYRQAPGKQRELVATITLSGSTNYADSVKGRFSISRDNAKNTVYLQMNSLKPEDTAVYYCNANTYSDSDVYGYWGQGTQVTVSSAHHSEDPSSKAPKAPMAQVQLQESGGGLVQPGGSLRLSCAASGNIFSINAIGWYRQAPGKQRELVATITLSGSTNYADSVKGRFSISRDNAKNTVYLQMNSLKPEDTAVYYCNANTYSDSDVYGYWGQGTQVTVSSHHHHHH
notes: Bivalent tandem of two clone 1 VHH domains in one chain; also called biv MMR linker 2 g2c; MMR biv g2c
For the molecule B2, in test [1], the koff came to 0.00411 s⁻¹ and the kon turned out to be 1.02e+06 M⁻¹ s⁻¹. The “fold increase in KD (so in the source)” value in test [2] was 3 fold.

B3: Anti-MMR Nanobody clone 3 (VHH)
VHH: QVQLQESGGGLVQAGGSLRLSCAASGRTFSRDAMGWFRQAPGKEREFVAGISWSGGSTYYADSVKGRFTISRDGAKNTVNLQMNSLKPEDTAVYYCAASSIYGSAVVDGLYDYWGQGTQVTVSS
notes: Monovalent, His-tagged; also called Anti-MMR Nb3; Nb clone 3
On to B3, for which, in test [1], the koff was 0.0186 s⁻¹ and the kon was determined as 97300 M⁻¹ s⁻¹. In test [3], the koff came to 0.0186 s⁻¹ and the kon was found to be 97300 M⁻¹ s⁻¹. The binding result in test [4] was “no binding (tested: analyte 1 to 2000 nM)”.

B4: Bivalent anti-MMR Nanobody 1 with (Gly4Ser)3 linker (VHH)
chain: QVQLQESGGGLVQPGGSLRLSCAASGNIFSINAIGWYRQAPGKQRELVATITLSGSTNYADSVKGRFSISRDNAKNTVYLQMNSLKPEDTAVYYCNANTYSDSDVYGYWGQGTQVTVSSGGGGSGGGGSGGGGSQVQLQESGGGLVQPGGSLRLSCAASGNIFSINAIGWYRQAPGKQRELVATITLSGSTNYADSVKGRFSISRDNAKNTVYLQMNSLKPEDTAVYYCNANTYSDSDVYGYWGQGTQVTVSSHHHHHH
notes: Bivalent tandem of two clone 1 VHH domains in one chain; also called biv MMR linker 1 GS; MMR biv (Gly4Ser)3
For the molecule B4, in test [1], the koff was determined as 0.0044 s⁻¹ and the kon was found to be 1.04e+06 M⁻¹ s⁻¹. Moreover, in test [2], the “fold increase in KD (so in the source)” value was found to be 3 fold.

B5: Anti-MMR Nanobody clone 1 (VHH)
VHH: QVQLQESGGGLVQPGGSLRLSCAASGNIFSINAIGWYRQAPGKQRELVATITLSGSTNYADSVKGRFSISRDNAKNTVYLQMNSLKPEDTAVYYCNANTYSDSDVYGYWGQGTQVTVSS
notes: 99mTc-labelled at the His tail in the in vivo experiments; also called Anti-MMR Nb1; Nb MMR cl1
For the molecule B5, in test [1], the koff stood at 0.0133 s⁻¹ and the kon came to 576000 M⁻¹ s⁻¹. In test [3], the koff was determined as 0.0133 s⁻¹ and the on-rate constant (kon) was found to be 576000 M⁻¹ s⁻¹. Also, the binding result in test [4] is given as “no binding (tested: analyte 1 to 2000 nM)”.

The koff is a measure of how fast the partners let go of each other. A word on the kon: it is a measure of how fast the partners come together.
